Patent US20030229041A1

Target: bone morphogenetic protein 6 (UniProt P22004)
Test: cell-based or functional assay

Chain of UniProt P22004 (P22004 382-513 limits assumed): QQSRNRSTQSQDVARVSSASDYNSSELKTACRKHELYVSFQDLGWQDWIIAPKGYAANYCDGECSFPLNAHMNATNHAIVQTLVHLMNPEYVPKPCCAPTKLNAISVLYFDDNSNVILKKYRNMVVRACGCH

mouse noggin (from UniProt P97466 28-232)
BMP-6 stimulated alkaline phosphatase activity in mouse mesenchymal C3H10T1/2 cells (IC50): 0.3 µg/mL
